Reference: patent US7449563B2, “Methods and compositions for destabilizing microtubules” (Academia Sinica, priority 2003, dated 2008)
Entries after “also recorded” stand apart in the source; their conditions may differ. No end group written: not given here.

Assays:
[1] = biological target: T1, polymerized microtubules (bovine brain tubulin) (Bos taurus, UniProt P81947+Q6B856); test: Microtubule depolymerization assay (centrosomes omitted); assay type: biochemical; details: centrosomes absent; nocodazole 15 μM as positive control; data not shown
T1 construct: containing 125 μg bovine brain tubulin (Cytoskeleton, Denver, Colo.); purchased Cytoskeleton, Denver, Colo; host or cells: bovine brain (tissue-purified)
Procedure: Microtubule Depolymerization Assay
In this assay, centrosomes are omitted from the above reaction mixtures to determine the effects of various truncated GST-CPAP proteins or synthetic peptides on microtubule polymerization in the absence of centrosomes. Polymerized microtubules were stained using FITC-conjugated anti-α-tubulin monoclonal antibodies, as above. Nocodazole (15 μM) was added to some reactions mixtures as a positive control for microtubule depolymerization.

[2] = biological target: T2, microtubule nucleation from purified centrosomes (bovine brain tubulin) (Bos taurus, UniProt P81947+Q6B856); test: In vitro centrosome-dependent microtubule nucleation assay; assay type: biochemical; details: for Inhibition of microtubule nucleation/assembly from purified centrosomes (in words): in vitro
T2 construct: containing 125 μg bovine brain tubulin (Cytoskeleton, Denver, Colo.); purchased Cytoskeleton, Denver, Colo; host or cells: bovine brain (tissue-purified)
Procedure: In vitro Centrosome-Dependant Microtubule Nucleation Assay
Isolation of centrosomes and microtubule nucleation tests were performed as described (Hung et al., 2000). To investigate the effect of different GST-truncated CPAP fusion proteins on microtubule nucleation, purified centrosomes (4 μl per reaction) were pre-incubated with the various truncated GST-CPAP fusion proteins or FPLC purified synthetic peptides for 10 min at 4° C. The reaction mixtures were then incubated in 65 μl RG1 buffer (80 mM PIPES, pH 6.8, 1 mM EGTA, 1 mM MgCl2, and 1 mM GTP) containing 125 μg bovine brain tubulin (Cytoskeleton, Denver, Colo.) for 4 min at 37° C.
Microtubules present in the reaction mixtures were fixed in 200 μl 1% glutaraldehyde in RG1 buffer, sedimented onto acid-treated coverslips, and subjected to immunofluoresence analysis using anti-α-tubulin monoclonal antibodies N356 (Amersham, Piscataway, N.J.) or FITC-conjugated anti-α-tubulin monoclonal antibodies (DM1A-FITC; Sigma, Saint Louis, Mo.). Truncated GST-CPAP proteins were detected using an anti-GST polyclonal antibody (Molecular Probes, Cincinnati, Ohio). The extent of microtubule assembly in each reaction was determined microscopically by comparing the extent of microtubule formation on each coverslip. Decreased microtubule formation in reactions comprising polypeptides derived from CPAP indicated the ability of such polypeptides to inhibit centrosome-dependent microtubule assembly.

HeLa cells = test: Cell-based assay for CPAP activity: microtubule reassembly in cold-treated transfected HeLa cells; design: species or system human; details: transiently transfected HeLa cells
Procedure: Cell Culture and Transfection
HeLa cells were maintained in DMEM supplemented with 10% fetal bovine serum. cDNA clones encoding different portions of CPAP were subcloned, in an appropriate reading frame, into the CMV promoter-driven EGFP-C1 expression vector (Clontech, Palo Alto, Calif.). Transient transfections were performed using Lipofectamine 2000 (Invitrogen, Carlsbad, Calif.) according to the manufacturer's instructions.
Cold Treatment, Immunofluorescence and Confocal Microscopy
HeLa cells were grown on coverslips for at least 24 hr. Cold treatment was performed by incubating the cells at 4° C. for 1 hr, then replacing the cold medium with medium warmed to 30° C. and incubating the cells for 2 min at 30° C. The cells were then fixed with 1% formaldehyde for 30 min at room temperature.
The fixed cells were incubated in the presence of anti-α-tubulin monoclonal antibodies (N356, Amersham, Piscataway, N.J.) and anti-γ-tubulin polyclonal antibodies (Sigma, Saint Louis, Mo.). Bound anti-α-tubulin monoclonal antibodies (N356) were detected with Alexa 568, a Texas Red-conjugated goat anti-mouse IgG, or Alexa 647, a far-red fluorophore-conjugated goat anti-mouse IgG. Bound anti-γ-tubulin polyclonal antibodies were detected with Alexa 568 (Molecular Probes Inc.). The resulting […] signals were detected using a laser scanning confocal system (MRC 1000, Bio-Rad Laboratories, Hercules, Calif.).
The effect of various polypeptides derived from CPAP was determined by evaluating the amounts of mitotic spindle formation in the transfected cells. Decreased mitotic spindle formation indicated the presence of an activity that inhibited microtubule formation or destabilized microtubules.

T1 sequence (P81947 whole entry): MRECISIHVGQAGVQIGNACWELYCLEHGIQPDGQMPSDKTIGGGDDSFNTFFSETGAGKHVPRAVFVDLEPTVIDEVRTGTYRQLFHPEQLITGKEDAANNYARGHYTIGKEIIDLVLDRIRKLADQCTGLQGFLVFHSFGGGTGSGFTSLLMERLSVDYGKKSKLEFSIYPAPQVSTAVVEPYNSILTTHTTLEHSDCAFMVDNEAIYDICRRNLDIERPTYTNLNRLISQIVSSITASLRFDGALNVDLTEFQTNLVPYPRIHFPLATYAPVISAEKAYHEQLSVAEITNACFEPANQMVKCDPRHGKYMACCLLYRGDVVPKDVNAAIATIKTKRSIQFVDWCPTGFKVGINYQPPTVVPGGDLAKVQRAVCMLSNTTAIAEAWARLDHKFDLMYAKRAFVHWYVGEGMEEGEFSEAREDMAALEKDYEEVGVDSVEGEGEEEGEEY
T1 sequence (Q6B856 whole entry): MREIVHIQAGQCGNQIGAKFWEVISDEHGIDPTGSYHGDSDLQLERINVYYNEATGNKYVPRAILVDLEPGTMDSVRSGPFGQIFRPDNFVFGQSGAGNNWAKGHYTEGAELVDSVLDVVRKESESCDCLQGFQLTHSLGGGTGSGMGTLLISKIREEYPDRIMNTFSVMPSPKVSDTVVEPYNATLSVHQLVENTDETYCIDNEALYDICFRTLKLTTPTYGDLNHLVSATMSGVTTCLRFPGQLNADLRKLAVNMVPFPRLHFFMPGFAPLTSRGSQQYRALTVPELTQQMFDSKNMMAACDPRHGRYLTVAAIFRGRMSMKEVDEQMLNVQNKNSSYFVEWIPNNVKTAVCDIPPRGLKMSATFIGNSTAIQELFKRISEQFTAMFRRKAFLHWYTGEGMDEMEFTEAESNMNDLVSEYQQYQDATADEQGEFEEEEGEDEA
T2 sequence (P81947 whole entry): as the sequence (P81947 whole entry) above
T2 sequence (Q6B856 whole entry): as the sequence (Q6B856 whole entry) above

Row | Molecule | Disassembly of polymerized microtubules in the absence of centrosomes (in words) [1] | Inhibition of microtubule reassembly in cold-treated mitotic cells (in words) (HeLa cells) | other results
1 | COC(=O)Nc1nc2ccc(C(=O)c3cccs3)cc2[nH]1 [nocodazole, Nocodazole, reference compound] | disassembled | – | –
2 | GST-PN2-1: GST fusion polypeptide with sub-region PN2-1 of PN2 (CPAP residues 132-190 per b157) (EFKEGAYKDPLFKKLEQLKEVQQKKQEQLKRQQLEQLQRLMEEQEKLLTMVSGQCTLPG; also: GST fusion, terminus not given here) | no such effect | – | –
3 | GST-CM: GST fusion polypeptide corresponding to amino acid residues 132-607 of CPAP (protein, left off: a dimerising Fc or GST, GST fusion polypeptide corresponding to amino acid residues 132-607 of CPAP) EFKEGAYKDPLFKKLEQLKEVQQKKQEQLKRQQLEQLQRLMEEQEKLLTMVSGQCTLPGLSLLPDDQSQKHRSPGNTTTGERATCCFPSYVYPDPTQEETYPSNILSHEQSNFCRTAHGDFVLTSKRASPNLFSEAQYQEAPVEKNNLKEENRNHPTGESILCWEKVTEQIQEANDKNLQKHDDSSEVANIEERPIKAAIGERKQTFEDYLEEQIQLEEQELKQKQLKEAEGPLPIKAKPKQPFLKRGEGLARFTNAKSKFQKGKESKLVTNQSTSEDQPLFKMDRQQLQRKTALKNKELCADNPILKKDSKARTKSGSVTLSQKPKMLKCSNRKSLSPSGLKIQTGKKCDGQFRDQIKFENKVTSNNKENVTECPKPCDTGCTGWNKTQGKDRLPLSTGPASRLAAKSPIRETMKESESSLDVSLQKKLETWEREKEKENLELDEFLFLEQAADEISFSSNSSFVLKILERDQQI | disassembled | – | Inhibition of microtubule nucleation/assembly from purified centrosomes (in words) [2]: inhibited
4 | GST-PN2-3: GST fusion polypeptide corresponding to residues 311-422 of CPAP (protein, left off: a dimerising Fc or GST, GST fusion polypeptide corresponding to residues 311-422 of CPAP) QKHDDSSEVANIEERPIKAAIGERKQTFEDYLEEQIQLEEQELKQKQLKEAEGPLPIKAKPKQPFLKRGEGLARFTNAKSKFQKGKESKLVTNQSTSEDQPLFKMDRQQLQR | disassembled | – | Inhibition of microtubule nucleation/assembly from purified centrosomes (in words) [2]: possessed the ability to inhibit microtubule assembly; also recorded: greatest level of inhibition
5 | peptide M: synthetic peptide, amino acid residues 320-390 of CPAP (SEQ ID NO:1) (peptide, listed as Homo sapiens) ANIEERPIKAAIGERKQTFEDYLEEQIQLEEQELKQKQLKEAEGPLPIKAKPKQPFLKRGEGLARFTNAKS | disassembled | – | Effect of synthetic peptide on centrosome-dependent microtubule nucleation (in words) ([2]; 20 μM or 40 μM peptide): inhibited centrosome-dependent microtubule nucleation in a dose dependent manner
6 | GFP-CM: GFP-tagged CPAP residues 132-607, expressed from a transfected vector (protein, UniProt Q9HC77 132-607, looked up, fragment, GFP tag, GFP-tagged CPAP residues 132-607, expressed from a transfected vector) EFKEGAYKDPLFKKLEQLKEVQQKKQEQLKRQQLEQLQRLMEEQEKLLTMVSGQCTLPGLSLLPDDQSQKHRSPGNTTTGERATCCFPSYVYPDPTQEETYPSNILSHEQSNFCRTAHGDFVLTSKRASPNLFSEAQYQEAPVEKNNLKEENRNHPTGESILCWEKVTEQIQEANDKNLQKHDDSSEVANIEERPIKAAIGERKQTFEDYLEEQIQLEEQELKQKQLKEAEGPLPIKAKPKQPFLKRGEGLARFTNAKSKFQKGKESKLVTNQSTSEDQPLFKMDRQQLQRKTALKNKELCADNPILKKDSKARTKSGSVTLSQKPKMLKCSNRKSLSPSGLKIQTGKKCDGQFRDQIKFENKVTSNNKENVTECPKPCDTGCTGWNKTQGKDRLPLSTGPASRLAAKSPIRETMKESESSLDVSLQKKLETWEREKEKENLELDEFLFLEQAADEISFSSNSSFVLKILERDQQI | – | significantly inhibited microtubule reassembly | –
7 | GFP-A5C: GFP-tagged CPAP residues 1070-1338 (protein, UniProt Q9HC77 1070-1338, looked up, fragment, GFP tag) KLANTSVRFQNSQISSGTQVEKYKKNYLPMQGNPPRRSKSAPPRDLGNLDKGQAASPREPLEPLNFPDPEYKEEEEDQDIQGEISHPDGKVEKVYKNGCRVILFPNGTRKEVSADGKTITVTFFNGDVKQVMPDQRVIYYYAAAQTTHTTYPEGLEVLHFSSGQIEKHYPDGRKEITFPDQTVKNLFPDGQEESIFPDGTIVRVQRDGNKLIEFNNGQRELHTAQFKRREYPDGTVKTVYANGHQETKYRSGRIRVKDKEGNVLMDTEL | – | no significant inhibition | –
8 | GFP-PN2-2: GFP-tagged CPAP residues 191-310 (protein, UniProt Q9HC77 191-310, looked up, fragment, GFP tag) LSLLPDDQSQKHRSPGNTTTGERATCCFPSYVYPDPTQEETYPSNILSHEQSNFCRTAHGDFVLTSKRASPNLFSEAQYQEAPVEKNNLKEENRNHPTGESILCWEKVTEQIQEANDKNL | – | no significant inhibition | –
9 | GFP-PN1: GFP-tagged CPAP residues 1-132 (protein, UniProt Q9HC77 1-132, looked up, fragment, GFP tag) MFLMPTSSELNSGQNFLTQWMTNPSRAGVILNRGFPILEADKEKRAAVDISTSFPIKGTHFSDSFSFINEEDSLLEEQKLESNNPYKPQSDKSETHTAFPCIKKGPQVAACHSAPGHQEENKNDFIPDLASE | – | no significant inhibition | –
10 | GFP-A5N: GFP-tagged CPAP residues 423-607 (protein, UniProt Q9HC77 423-607, looked up, fragment, GFP tag) KTALKNKELCADNPILKKDSKARTKSGSVTLSQKPKMLKCSNRKSLSPSGLKIQTGKKCDGQFRDQIKFENKVTSNNKENVTECPKPCDTGCTGWNKTQGKDRLPLSTGPASRLAAKSPIRETMKESESSLDVSLQKKLETWEREKEKENLELDEFLFLEQAADEISFSSNSSFVLKILERDQQI | – | no significant inhibition | –
11 | GFP-A5M2: GFP-tagged CPAP residues 607-1070 (protein, UniProt Q9HC77 607-1070, looked up, fragment, GFP tag) ICKGHRMSSTPVKAVPQKTNPADPISHCNRSEDLDHTAREKESECEVAPKQLHSLSSADELREQPCKIRKAVQKSTSENQTEWNARDDEGVPNSDSSTDSEEQLDVTIKPSTEDRERGISSREDSPQVCDDKGPFKDTRTQEDKRRDVDLDLSDKDYSSDESIMESIKHKVSEPSRSSSLSLSKMDFDDERTWTDLEENLCNHDVVLGNESTYGTPQTCYPNNEIGILDKTIKRKIAPVKRGEDLSKSRRSRSPPTSELMMKFFPSLKPKPKSDSHLGNELKLNISQDQPPGDNARSQVLREKIIELETEIEKFKAENASLAKLRIERESALEKLRKEIADFEQQKAKELARIEEFKKEEMRKLQKERKVFEKYTTAARTFPDKKEREEIQTLKQQIADLREDLKRKETKWSSTHSRLRSQIQMLVRENTDLREEIKVMERFRLDAWKRAEAIESSLEVEKKDK | – | no significant inhibition | –
